Source: paper PMC4243959, “Sequestration of latent TGF-β binding protein 1 into CADASIL-related Notch3-ECD deposits” (Acta Neuropathologica Communications, 2014)

Key:
[1] = target: recombinant human Notch3 encompassing aa 40-467 (N3EGF1-11-Fc) (human) (UniProt Q9UM47); assay: ELISA; solid-phase binding assay: 1 μg N3EGF1-11-Fc coated on Maxisorp plates in PBS overnight at 4°C, blocked with PBS/1% BSA; 50 μL conditioned supernatant of transfected HEK293T cells bound 1 h at room temperature; detection with anti-V5 or anti-LTBP-1 and anti-mouse-HRP; IgG1-Fc as control ligand
[2] = target: the molecule itself; assay: scanning for intensely fluorescent targets (SIFT); purified proteins labelled with different fluorescent dyes, pre-cleared at 100,000 g, incubated pairwise in solution; 64 nM LTBP-1 variants, 160 nM N3EGF1-5; confocal single-particle measurement after 24 h

Molecule	fold binding over the control ligand IgG-Fc [1] [fold]	binding result [2]
full-length LTBP-1S (short human isoform of latent TGF-β binding protein 1, 1395 aa) with N-terminal HA tag and C-terminal V5-His tag (natural protein)	4.9	–
LTBP-1ΔN containing a C-terminal V5-His tag (LTBP-1ΔN_V5) (domain or fragment, human, UniProt Q14766-2 528-1395, looked up, fluorescent dye label (dye and site not stated), numbers count on: the short isoform of 1395 aa; source: HEK293E, purified (metal-ion matrix, via His tag); not shown: V5, C-terminal, kept; His, C-terminal, kept) APEASTSSASQVIAPTQVTEINECTVNPDICGAGHCINLPVRYTCICYEGYRFSEQQRKCVDIDECTQVQHLCSQGRCENTEGSFLCICPAGFMASEEGTNCIDVDECLRPDVCGEGHCVNTVGAFRCEYCDSGYRMTQRGRCEDIDECLNPSTCPDEQCVNSPGSYQCVPCTEGFRGWNGQCLDVDECLEPNVCANGDCSNLEGSYMCSCHKGYTRTPDHKHCRDIDECQQGNLCVNGQCKNTEGSFRCTCGQGYQLSAAKDQCEDIDECQHRHLCAHGQCRNTEGSFQCVCDQGYRASGLGDHCEDINECLEDKSVCQRGDCINTAGSYDCTCPDGFQLDDNKTCQDINECEHPGLCGPQGECLNTEGSFHCVCQQGFSISADGRTCEDIDECVNNTVCDSHGFCDNTAGSFRCLCYQGFQAPQDGQGCVDVNECELLSGVCGEAFCENVEGSFLCVCADENQEYSPMTGQCRSRTSTDLDVDVDQPKEEKKECYYNLNDASLCDNVLAPNVTKQECCCTSGVGWGDNCEIFPCPVLGTAEFTEMCPKGKGFVPAGESSSEAGGENYKDADECLLFGQEICKNGFCLNTRPGYECYCKQGTYYDPVKLQCFDMDECQDPSSCIDGQCVNTEGSYNCFCTHPMVLDASEKRCIRPAESNEQIEETDVYQDLCWEHLSDEYVCSRPLVGKQTTYTECCCLYGEAWGMQCALCPLKDSDDYAQLCNIPVTGRRQPYGRDALVDFSEQYTPEADPYFIQDRFLNSFEELQAEECGILNGCENGRCVRVQEGYTCDCFDGYHLDTAKMTCVDVNECDELNNRMSLCKNAKCINTDGSYKCLCLPGYVPSDKPNYCTPLNTALNLEKDSDLE	–	binds
